{
  "source": "paper PMC12241602",
  "data": [
    {"molecular_target": "MadB, class I lantibiotic dehydratase of maddinglicin (His6-MadB) (Clostridium sp. Maddingley)", "assay": "ITC; leader variant (200 µM, syringe, 20 injections of 2 µL) titrated into MadB (20 µM of the dimer, cell); 25 °C; 50 mM HEPES, 500 mM NaCl, pH 7.5; N counts leader peptide per MadB dimer; at least triplicate, error S.D.", "values": [
      {"substance": "MadL1, isolated leader peptide of maddinglicin A (MadA), residues -23 to -1", "stoichiometry N": 1.21},
      {"substance": "MadL2, leader peptide of maddinglicin A with the first five residues of the core peptide, residues -23 to +5", "stoichiometry N": 0.89},
      {"substance": "MadL2_VSVS, MadL2 with the lysines K-12 and K-10 of the VKVK motif changed to serine (peptide)", "stoichiometry N": 1.12},
      {"substance": "MadL3, leader peptide of maddinglicin A with the first ten residues of the core peptide, residues -23 to +10", "stoichiometry N": 0.97}
    ]},
    {"molecular_target": "His6-MadB (class I lantibiotic dehydratase MadB) (Clostridium sp. Maddingley)", "assay": "ITC; 200 uM leader variant in the syringe titrated into 20 uM MadB dimer in the cell, 20 injections of 2 uL, 25 °C, 50 mM HEPES, 500 mM NaCl, pH 7.5", "units": {"Kd": "nM"}, "values": [
      {"substance": "MadL1 (isolated leader peptide of maddinglicin A)", "Kd": 410, "stoichiometry N (LP per MadB dimer)": 1},
      {"substance": "MadL2 (leader peptide of MadA with the first five residues of the core peptide)", "Kd": 320, "stoichiometry N (LP per MadB dimer)": 1},
      {"substance": "MadL3 (leader peptide of MadA with the first ten residues of the core peptide)", "Kd": 150, "stoichiometry N (LP per MadB dimer)": 1}
    ]}
  ]
}
